B1: ZNF449 (parent)
chain: EPHKCPECGKRFLRSSDLYRHQRL
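Note: lentivirally expressed fusions sorted by FACS into six bins by GFP to DsRed ratio, PSI derived from sequencing read proportions per bin multiplied by bin number.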

Variants of: B1
Assay: protein stability index of a GFP-peptide fusion (GPS, HEK-293T) (PSI 1-6); higher = more stable
Conditions: c terminus: a fixed tail appended
Variant EPHKCPECGQRFLRSSDLYRHQRL has a protein stability index of 4.08.
With EPHKCPECGPRFLRSSDLYRHQRL the protein stability index was 2.33.
EPHKCPECGMRFLRSSDLYRHQRL showed a protein stability index of 3.99.
EPHKCPECGHRFLRSSDLYRHQRL showed a protein stability index of 3.15.
With EPHKCPECGCRFLRSSDLYRHQRL the protein stability index was 2.48.
In the case of EPHKCPECGTRFLRSSDLYRHQRL, the protein stability index is reported as 3.5.
Work on EPHKCPECGARFLRSSDLYRHQRL yielded a protein stability index of 3.97.
In the case of EPHKCPECGERFLRSSDLYRHQRL, the protein stability index is reported as 3.63.
For EPHKCPECGFRFLRSSDLYRHQRL, the protein stability index was 2.52.
With EPHKCPECGKRFLRSSDLWRHQRL the protein stability index was 2.86.
Variant EPHKCPECGKRFLRSSDLLRHQRL has a protein stability index of 4.04.
Work on EPHKCPECGKRFLRSSDLFRHQRL yielded a protein stability index of 3.96.
In the case of EPHKCPECGKRFLRSSDLRRHQRL, the protein stability index is reported as 3.55.
For EPHKCPECGKRFLRSSDLTRHQRL, the protein stability index was 3.6.
EPHKCPECGKRFLRSSDLNRHQRL showed a protein stability index of 3.4.
With EPHKCPECGKRFLRSSDLERHQRL the protein stability index was 4.63.
With EPHKCPECGKRFLRSSDLKRHQRL the protein stability index was 3.92.
For EPHKCPECGKRFLRSSDLPRHQRL, the protein stability index was 2.62.
In the case of EPNKCPECGKRFLRSSDLYRHQRL, the protein stability index is reported as 4.49.
With EPKKCPECGKRFLRSSDLYRHQRL the protein stability index was 3.23.
Variant EPIKCPECGKRFLRSSDLYRHQRL has a protein stability index of 4.1.
Variant EPYKCPECGKRFLRSSDLYRHQRL has a protein stability index of 4.7.
For EPSKCPECGKRFLRSSDLYRHQRL, the protein stability index was 2.97.
EPAKCPECGKRFLRSSDLYRHQRL gave a protein stability index of 3.25.
In the case of EPFKCPECGKRFLRSSDLYRHQRL, the protein stability index is reported as 4.09.
Variant EPLKCPECGKRFLRSSDLYRHQRL has a protein stability index of 4.89.
With EPHKCPECGKRFLRSSRLYRHQRL the protein stability index was 2.34.
Work on EPHKCPECGKRFLRSSGLYRHQRL yielded a protein stability index of 2.58.
EPHKCPECGKRFLRSSVLYRHQRL gave a protein stability index of 1.69.
Variant EPHKCPECGKRFLRSSILYRHQRL has a protein stability index of 2.04.
With EPHKCPECGKRFLRSSFLYRHQRL the protein stability index was 1.68.
Work on EPHKCPECGKRFLRSSSLYRHQRL yielded a protein stability index of 2.61.
In the case of EPHKCPECGKRFLRSSPLYRHQRL, the protein stability index is reported as 2.38.
For EPHKCPECGKRFLRSSDLYRNQRL, the protein stability index was 2.12.
With EPHKCPECGKRFLRSSDLYRAQRL the protein stability index was 1.62.
EPHKCPECGKRFLRSSDLYREQRL showed a protein stability index of 2.15.
EPHKCPECGKRFLRSSDLYRCQRL gave a protein stability index of 2.15.
EPHKCPECGKRFLRSSDLYRWQRL showed a protein stability index of 1.29.
Variant EPHKCPECGKRFVRSSDLYRHQRL has a protein stability index of 4.32.
In the case of EPHKCPECGKRFQRSSDLYRHQRL, the protein stability index is reported as 4.66.
For EPHKCPECGKRFGRSSDLYRHQRL, the protein stability index was 3.88.
For EPHKCPECGKRFIRSSDLYRHQRL, the protein stability index was 3.5.
For EPHKCPECGKRFRRSSDLYRHQRL, the protein stability index was 3.99.
For EQHKCPECGKRFLRSSDLYRHQRL, the protein stability index was 3.53.
With EAHKCPECGKRFLRSSDLYRHQRL the protein stability index was 3.5.
With EKHKCPECGKRFLRSSDLYRHQRL the protein stability index was 3.57.
Work on EVHKCPECGKRFLRSSDLYRHQRL yielded a protein stability index of 3.02.
EYHKCPECGKRFLRSSDLYRHQRL gave a protein stability index of 3.21.
With EWHKCPECGKRFLRSSDLYRHQRL the protein stability index was 3.22.
With ECHKCPECGKRFLRSSDLYRHQRL the protein stability index was 3.58.
ELHKCPECGKRFLRSSDLYRHQRL gave a protein stability index of 3.63.
EPHKCPECGKRFLRSSDLYRHQDL gave a protein stability index of 4.32.
With EPHKCPECGKRFLRSSDLYRHQNL the protein stability index was 4.4.
EPHKCPECGKRFLRSSDLYRHQLL showed a protein stability index of 3.7.
Variant EPHKCPECGKRFLRSSDLYRHQPL has a protein stability index of 2.98.
EPHKCPECGKRFLRSSDLYRHQWL gave a protein stability index of 2.94.
In the case of EPHKCPECGKRFLRSSDLYRHQIL, the protein stability index is reported as 3.01.
In the case of EPHKCPECGKRFLRSSDHYRHQRL, the protein stability index is reported as 3.5.
Work on EPHKCPECGKRFLRSSDPYRHQRL yielded a protein stability index of 2.37.
Work on EPHKCPECGKRFLRSSDGYRHQRL yielded a protein stability index of 3.05.
EPHKCPECGKRFLRSSDFYRHQRL gave a protein stability index of 3.44.
In the case of EPHKCPECGKRFLRSSDAYRHQRL, the protein stability index is reported as 3.08.
Work on EPHKCPECGKRFLRSSDQYRHQRL yielded a protein stability index of 2.46.
EPHKCPECGKRFLRSSDVYRHQRL gave a protein stability index of 3.12.
In the case of EPHKCPECGKRFLRSSDEYRHQRL, the protein stability index is reported as 2.92.
EPHKCPECGKRFLRSSDWYRHQRL showed a protein stability index of 3.37.
EPHKCPECGKRFLRSSDRYRHQRL gave a protein stability index of 3.3.
With EPHKCPECGKRPLRSSDLYRHQRL the protein stability index was 2.51.
Work on EPHKCPECGKRCLRSSDLYRHQRL yielded a protein stability index of 1.67.
EPHKCPECGKRDLRSSDLYRHQRL showed a protein stability index of 2.13.
EPHKCPECGKRLLRSSDLYRHQRL showed a protein stability index of 2.54.
Variant EPHKCPECGKRQLRSSDLYRHQRL has a protein stability index of 2.03.
For EPHKCPECGKRMLRSSDLYRHQRL, the protein stability index was 2.45.
EPHKCPECIKRFLRSSDLYRHQRL showed a protein stability index of 2.65.
Work on EPHKCPECQKRFLRSSDLYRHQRL yielded a protein stability index of 3.16.
Variant EPHKCPECCKRFLRSSDLYRHQRL has a protein stability index of 2.18.
Variant EPHKCPECRKRFLRSSDLYRHQRL has a protein stability index of 2.31.
EPHKCPECMKRFLRSSDLYRHQRL showed a protein stability index of 2.72.
Work on EPHKCPECYKRFLRSSDLYRHQRL yielded a protein stability index of 2.8.
In the case of EPHKCPECFKRFLRSSDLYRHQRL, the protein stability index is reported as 2.52.
In the case of EPHKCPECPKRFLRSSDLYRHQRL, the protein stability index is reported as 2.82.
QPHKCPECGKRFLRSSDLYRHQRL showed a protein stability index of 3.12.
PPHKCPECGKRFLRSSDLYRHQRL showed a protein stability index of 3.19.
Variant HPHKCPECGKRFLRSSDLYRHQRL has a protein stability index of 3.45.
FPHKCPECGKRFLRSSDLYRHQRL gave a protein stability index of 2.93.
LPHKCPECGKRFLRSSDLYRHQRL showed a protein stability index of 2.81.
With APHKCPECGKRFLRSSDLYRHQRL the protein stability index was 2.84.
MPHKCPECGKRFLRSSDLYRHQRL gave a protein stability index of 2.89.
NPHKCPECGKRFLRSSDLYRHQRL showed a protein stability index of 2.83.
EPHKCRECGKRFLRSSDLYRHQRL showed a protein stability index of 3.1.
Variant EPHKCHECGKRFLRSSDLYRHQRL has a protein stability index of 3.91.
EPHKCDECGKRFLRSSDLYRHQRL gave a protein stability index of 4.46.
Work on EPHKCAECGKRFLRSSDLYRHQRL yielded a protein stability index of 3.75.
EPHKCTECGKRFLRSSDLYRHQRL gave a protein stability index of 3.52.

Source: the supplement of paper PMC10567573
